Data published in US20220195383A1, “METHOD FOR PRODUCING PLURIPOTENT STEM CELLS” (KANEKA CORPORATION, priority 2019, published 2022).

Tests used:
[1] = system: human iPS cell line RPChiPS771-2; assay: Adhesion culture with addition of WNT3A protein into medium, quantitative real-time PCR; type: cell-based
Protocol: (§1) These cells were lysed using TRIzol™ Reagent (Thermo Fisher Scientific K.K.). Total RNA was isolated and purified from a cell solution obtained by lysing with TRIzol™ Reagent using a PureLink (registered trademark) RNA Mini kit (Thermo Fisher Scientific K.K.). A concentration of the purified RNA was measured using BioSpec-nano (Shimadzu Corporation), and 40 ng was separated. 2 μL of ReverTra Ace (registered trademark) qPCR RT Master Mix (TOYOBO CO., LTD.) and RNase Free dH2O were added to the separated RNA to prepare 10 μL. cDNA synthesis was performed using SimpliAmp Thermal Cycler (Thermo Fisher Scientific K.K.). […] A synthesized cDNA solution was diluted 100-fold with 10 mM Tris-HCl pH 8.0 (NACALAI TESQUE, INC.) and added to a 384-well PCR plate (Thermo Fisher Scientific K.K.) at 5 μL/well. KOD SYBR® qPCR Mix (TOYOBO CO., LTD.), a Forward primer prepared to 50 μM, a Reverse primer prepared to 50 μM, and DEPC-treated water (NACALAI TESQUE, INC.) were mixed at a ratio of 100:1:1:48. This mixed solution was added to the above-mentioned 384-well PCR plate at 15 μL/well and mixed. For the primers, bACT, OCT4, SOX2, Nanog, Brachyury, and SOX17 were used. The 384-well PCR plate was subjected to centrifugal separation to remove air bubbles in the wells, and quantitative real-time PCR analysis was performed using QuantStudio 7 Flex Real-Time PCR System (Thermo Fisher Scientific K.K.).
(§2) The human iPS cell lines 201B7 and RPChiPS771-2 maintenance-cultured in the procedure of Step 1 of Reference Example 3 were treated with Accutase for 3 to 5 minutes to release the cells from the dish. The cells were dispersed into single cells by pipetting. These cells were suspended in a StemFit (registered trademark) AK02N medium containing Y-27632 at a final concentration of 10 μM. A part of the cells was stained with trypan blue to measure the number of living cells. A cell suspension was prepared so that it contained 4.6×10^4 cells per mL using the StemFit (registered trademark) AK02N medium containing Y-27632 a final concentration of 10 μM. 2 mL of the cell suspension per well was seeded in a 6-well plate for cell culture (Sumitomo Bakelite Co., Ltd.) coated with 0.5 μg of Vitronectin per 1 cm^2. WNT3A protein (R&D Systems, Inc.) was added to each of the wells so that final concentrations were 10 pg/mL, 100 pg/mL, 1 ng/mL, 10 ng/mL, and 100 ng/mL, and adhesion culture was performed at 37° C. in a 5% CO2 environment. The day when the cells were seeded was defined as day 0 of the culture. The adhesion culture was performed until day 5 of the culture. Medium exchange was performed every day. […] Phase-contrast images of the cells were acquired using a phase-contrast microscope on day 5 of the culture. FIG. 8 and FIG. 9 show the acquired phase-contrast images. Furthermore, on day 5 of the culture, the culture supernatant was recovered from the wells. 0.5 mL of Accutase was added per well to treat the cells for 3 to 5 minutes. The cells were released from the wells, and were dispersed into single cells by pipetting. These cells were suspended in a StemFit (registered trademark) AK02N medium containing Y-27632 at a final concentration of 10 μM. A part of the cells was stained with trypan blue to measure the number of living cells.
(§3) The phase-contrast images on day 5 of the culture were analyzed with image analysis software (for example, ImageJ), and a proportion of a surface area of cells with respect to a culture area was calculated. From this value and the culture area (9.2 cm^2/well), an area in which the cell surface was in contact with the medium was calculated. Furthermore, a surface area (cm^2) in contact with the medium per cell was calculated from an area in which the cell surface was in contact with the medium and from the number of living cells on day 5 of the culture. […]

[2] = system: human iPS cell line 201B7; assay: as above; type: cell-based; conditions: Line 201B7, day 5
Protocol: as §1, §2, §3

[3] = WNT3A protein in medium 10 pg/mL, adhesion culture, Line RPChiPS771-2, day 5
[4] = WNT3A protein in medium 100 pg/mL, adhesion culture, Line RPChiPS771-2, day 5
[5] = WNT3A protein in medium 1 ng/mL, adhesion culture, Line RPChiPS771-2, day 5
[6] = WNT3A protein in medium 10 ng/mL, adhesion culture, Line RPChiPS771-2, day 5
[7] = WNT3A protein in medium 100 ng/mL, adhesion culture, Line RPChiPS771-2, day 5
[8] = adhesion culture with added WNT3A, lines 201B7 and RPChiPS771-2, day 5
[9] = WNT3A protein in medium 10 pg/mL
[10] = WNT3A protein in medium 100 pg/mL
[11] = WNT3A protein in medium 1 ng/mL
[12] = WNT3A protein in medium 10 ng/mL
[13] = WNT3A protein in medium 100 ng/mL

B1: WNT3A protein: WNT3A protein (R&D Systems, Inc.) added to the adhesion culture medium at 10 pg/mL to 100 ng/mL (protein, UniProt P56704 19-352, looked up)
Protein Wnt-3a: SYPIWWSLAVGPQYSSLGSQPILCASIPGLVPKQLRFCRNYVEIMPSVAEGIKIGIQECQHQFRGRRWNCTTVHDSLAIFGPVLDKATRESAFVHAIASAGVAFAVTRSCAEGTAAICGCSSRHQGSPGKGWKWGGCSEDIEFGGMVSREFADARENRPDARSAMNRHNNEAGRQAIASHMHLKCKCHGLSGSCEVKTCWWSQPDFRAIGDFLKDKYDSASEMVVEKHRESRGWVETLRPRYTYFKVPTERDLVYYEASPNFCEPNPETGSFGTRDRTCNVSSHGIDGCDLLCCGRGHNARAERRREKCRCVFHWCCYVSCQECTRVYDVHTCK
Relative gene expression level with respect to ACTB in 2^−Λ Ct, Nanog [1, 3]: 5.06 × 10^−2
Relative gene expression level with respect to ACTB in 2^−Λ Ct, OCT4 [1, 3]: 4.06 × 10^−1
Relative gene expression level with respect to ACTB in 2^−Λ Ct, SOX2 [1, 3]: 2.64 × 10^−2
Relative gene expression level with respect to ACTB in 2^−Λ Ct, Nanog [1, 4]: 5.30 × 10^−2
Relative gene expression level with respect to ACTB in 2^−Λ Ct, OCT4 [1, 4]: 4.44 × 10^−1
Relative gene expression level with respect to ACTB in 2^−Λ Ct, SOX2 [1, 4]: 2.77 × 10^−2
Relative gene expression level with respect to ACTB in 2^−Λ Ct, Nanog [1, 5]: 4.88 × 10^−2
Relative gene expression level with respect to ACTB in 2^−Λ Ct, OCT4 [1, 5]: 3.87 × 10^−1
Relative gene expression level with respect to ACTB in 2^−Λ Ct, SOX2 [1, 5]: 2.89 × 10^−2
Relative gene expression level with respect to ACTB in 2^−Λ Ct, Nanog [1, 6]: 5.53 × 10^−2
Relative gene expression level with respect to ACTB in 2^−Λ Ct, OCT4 [1, 6]: 4.42 × 10^−1
Relative gene expression level with respect to ACTB in 2^−Λ Ct, SOX2 [1, 6]: 2.77 × 10^−2
Relative gene expression level with respect to ACTB in 2^−Λ Ct, Brachyury [1, 7]: 3.07 × 10^−4
Relative gene expression level with respect to ACTB in 2^−Λ Ct, Nanog [1, 7]: 6.65 × 10^−2
Relative gene expression level with respect to ACTB in 2^−Λ Ct, OCT4 [1, 7]: 4.56 × 10^−1
Relative gene expression level with respect to ACTB in 2^−Λ Ct, SOX2 [1, 7]: 1.66 × 10^−2
Relative gene expression level with respect to ACTB in 2^−Λ Ct, SOX17 [1, 7]: 1.11 × 10^−3
Amount of WNT3A protein contained in unit of medium in contact with unit area of cell surface at which expression of the differentiation marker gene was detected [1, 8]: ≥ 5.2×10^4 μg/mL·cm^2
Amount of WNT3A protein contained in unit of medium in contact with unit area of cell surface at which expression of the differentiation marker gene was not detected [1, 8]: ≤ 6.7×10^3 μg/mL·cm^2
Relative gene expression level with respect to ACTB in 2^−Λ Ct, Nanog [2, 9]: 2.59 × 10^−2
Relative gene expression level with respect to ACTB in 2^−Λ Ct, OCT4 [2, 9]: 2.27 × 10^−1
Relative gene expression level with respect to ACTB in 2^−Λ Ct, SOX2 [2, 9]: 2.44 × 10^−2
Relative gene expression level with respect to ACTB in 2^−Λ Ct, Nanog [2, 10]: 2.91 × 10^−2
Relative gene expression level with respect to ACTB in 2^−Λ Ct, OCT4 [2, 10]: 2.63 × 10^−1
Relative gene expression level with respect to ACTB in 2^−Λ Ct, SOX2 [2, 10]: 2.75 × 10^−2
Relative gene expression level with respect to ACTB in 2^−Λ Ct, Nanog [2, 11]: 2.82 × 10^−2
Relative gene expression level with respect to ACTB in 2^−Λ Ct, OCT4 [2, 11]: 2.50 × 10^−1
Relative gene expression level with respect to ACTB in 2^−Λ Ct, SOX2 [2, 11]: 2.57 × 10^−2
Relative gene expression level with respect to ACTB in 2^−Λ Ct, Nanog [2, 12]: 2.96 × 10^−2
Relative gene expression level with respect to ACTB in 2^−Λ Ct, OCT4 [2, 12]: 2.56 × 10^−1
Relative gene expression level with respect to ACTB in 2^−Λ Ct, SOX2 [2, 12]: 2.55 × 10^−2
Relative gene expression level with respect to ACTB in 2^−Λ Ct, Brachyury [2, 13]: 3.14 × 10^−4
Relative gene expression level with respect to ACTB in 2^−Λ Ct, Nanog [2, 13]: 6.13 × 10^−2
Relative gene expression level with respect to ACTB in 2^−Λ Ct, OCT4 [2, 13]: 3.60 × 10^−1
Relative gene expression level with respect to ACTB in 2^−Λ Ct, SOX2 [2, 13]: 2.08 × 10^−2
Relative gene expression level with respect to ACTB in 2^−Λ Ct, SOX17 [2, 13]: 4.03 × 10^−5
